According to paper PMC4971460:

Target: MBP-GS fusion construct Δ2 (not stated | E. coli) [MBP: P0AEX9]
Assay: cryo-EM structure

## MBP-GS fusion construct Δ2 (from UniProt P0AEX9 27-396; P0A9C5 3-469)
  stoichiometry N: 12
